Test: yeast display, Sf9 membrane polyspecificity reagent, FACS + sequencing; frameworks hold sequencing errors
Summary of the method: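 Sorting gates, low and high (top ~1%), were placed on anti-HA fluorescence to track expression and on streptavidin fluorescence to track reagent binding. A clone's polyreactivity label is taken from the gate it came out of. The reagent was 10% biotinylated, detergent-solubilized Sf9 membrane, applied for 1 hour at 4 °C to galactose-induced yeast display cells.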

Row | Sequence | polyreactivity (PSR sort gate)
1 | QVQLVESGGGLVQAGGSLRLSCAASGSIFPSYVMGWYRQAPGKERELVAGITSSGGSTYYADSVKGRFTISRDNAKNTVYLQMNSLKPEDTAVYYCAARWKPASYGYGYWGQGTQVTVSS | low polyreactivity
2 | QVQLVESGGGLVQAGGSLRLSCAASGSIFPTNAMGWYRQAPGKERELVAAISRGDSTYYADSVKGRFTISRDNAKNTVYLQMNSLKPEDTAVYYCAARRSRTLWSPFYYWGQGTQVTVSS | low polyreactivity
3 | QVQLVESGGGLVQAGGSLRLSCAASGSIFPVNAMGWYRQAPGKEREWVAAISVSGGRTYYADSVKGRFTISRDNAKNTVYLQMNSLKPEDTAVYYCNKLLARGYASGYDYWGQGTQVTVSS | high polyreactivity
4 | QVQLVESGGGLVQAGGSLRLSCAASGSIFPVNTMGWYRQAPGKERELVAAITQRGGRTYYADSVKGRFTISRDNAKNTVYFQMNSLKPEDTAVYYCNRDLGAGGYDYWGQGTQVTVSS | low polyreactivity
5 | QVQLVESGGGLVQAGGSLRLSCAASGSIFPVYAMGWYRQAPGKERELVAAINSSGGSTYYADSVKWRFTISRDNAKNTVYLQMNSLKPEDTAVYYCAAEISTASYYAKTYDYWGQGTQVSVSS | low polyreactivity
6 | QVQLVESGGGLVQAGGSLRLSCAASGSIFPWNTMGWYRQAPGKERELVARISTSGASTYYADSVKGRFTISRDNAKNTVYLQMNSLKPEDTAVYYCAKVRHYGGRSWWYYYWGQGTQVTVSS | high polyreactivity
7 | QVQLVESGGGLVQAGGSLRLSCAASGSIFPWYTMGWYRQAPGKERELVAAITSSGGGTYYADSVKGRFTISRDNAKNTVYLQINSLKPEDTAVYYCAAGLDWGPEYEYWGQGTQVTVSS | low polyreactivity
8 | QVQLVESGGGLVQAGGSLRLSCAASGSIFPYNDMGWYRQAPGKERELVAAISDSAGSTYYADSVKGRFTISRDNAKNTVYLQMNSLKPEDTAVYYCADYDYWGQGTQVTVSS | low polyreactivity
9 | QVQLVESGGGLVQAGGSLRLSCAASGSIFPYNDMGWYRQAPGKERELVARITNGGSTNYADSVKGRFTISRDNAKNTVYLQMNSLKPEDTAVYYCNKDGTQEFAPDGHEYWGQGTQVTVSS | low polyreactivity
10 | QVQLVESGGGLVQAGGSLRLSCAASGSIFPYNVMGWYRQAPGKERELVAAITTGGRTNYADSVKGRFTISRDNAKNTVYLQMNSLKPEDTAVYYCAADRVVFGYWYYYWGQGTQVTVSS | high polyreactivity
11 | QVQLVESGGGLVQAGGSLRLSCAASGSIFPYNVMGWYRQAPGKERELVAAITTGGRTNYADSVKGRFTISRDNAKNTVYLQMNSLKPEDTAVYYCAARYGYYDSRRWYYYWGQGTQVTVSS | high polyreactivity
12 | QVQLVESGGGLVQAGGSLRLSCAASGSIFPYNVMGWYRQAPGKERELVASIDGRGASTYYADSVKGRFTISRDNAKNTVYLQKNSLKPEDTAVYYCAAGYEPYAAWYYYWGQGTQVTVAS | low polyreactivity
13 | QVQLVESGGGLVQAGGSLRLSCAASGSIFPYYAMGWYRQAPGKERELVAAITSAGSTNYADSVKGRFTISRDNAKNTVYLQMNSLKPEDTAVYYCAKEYYASGRSYRYPQYDYWGQGTQVTVSS | low polyreactivity
14 | QVQLVESGGGLVQAGGSLRLSCAASGSIFPYYAMGWYRQAPGKERELVAAITWSGGNTYYADSVKGRFTISRDNAKNTVYLQMNSLKPEDTAVYYFNALYRKYTGYDGYDYWGQGTQVTVSS | high polyreactivity
15 | QVQLVESGGGLVQAGGSLRLSCAASGSIFPYYAMGWYRQAPGKERELVADITSSVGSTYYADSVKGRFTISRDNAKNTVYLQMNSLKPEDTAVYYCAALYWFYVYPFTEYDYWGQGTQVTVSS | low polyreactivity
16 | QVQLVESGGGLVQAGGSLRLSCAASGSIFPYYAMGWYRQAPGKERELVATITYRGGSTNYADSVKGRFTISRDNAKNTVYLQMNSLKPEDTAVYYCAAYGYVLASPDPYSFVKLGYWGQGTQVTVSS | low polyreactivity

Row | Sequence | polyreactivity (PSR sort gate)
17 | QVQLVESGGGLVQAGGSLRLSCAASGSIFPYYTMGWYRQAPGKERELVAAISGSGTSTYYADSVKGRFTISRDNAKNTVYLQMNSLKPEDTAVYYCAKRFRYGYVNYYYWGQGTQVTVSS | low polyreactivity
18 | QVQLVESGGGLVQAGGSLRLSCAASGSIFQANAMGWYRQAPGKEWEFVAAINWSTGTTYYADSVKGRFTISRDNAKNTVYLQMNSLKPEDTAVYYCNASDQAKYDYWGQGTQVTVSS | low polyreactivity
19 | QVQLVESGGGLVQAGGSLRLSCAASGSIFQEYAMGWYRQAPGKERELVAAIDDSDGSTYADSVKGRFTISRDNAKTTVYLQMNSLKPDDTAVYYCNADIHATYDYWGQGTQVTVSS | low polyreactivity
20 | QVQLVESGGGLVQAGGSLRLSCAASGSIFQGNAMGWYRQAPGKERELVAAISWSGDSTYYADSVKGRFTISRDNAKNTVYLQMNSLKPEDTAVYYCNAEWTRDFYEYDYWGQGTQVTVSS | low polyreactivity
21 | QVQLVESGGGLVQAGGSLRLSCAASGSIFQGNAMGWYRQAPGKERELVAGITRSGGSTYYADSVKGRFTISRDNAKNTVYLQMNSLKPEDTAVYYCAADYSSDGDYWGQGTQVTVSS | low polyreactivity
22 | QVQLVESGGGLVQAGGSLRLSCAASGSIFQGYAMGWYRQAPGKERELVASISRGGSTNYADSVKGRFTISRDNAKNTVYLQMNSLKPEDTAVYYCAARAYWYGRYGYWGQGTQVTVSS | high polyreactivity
23 | QVQLVESGGGLVQAGGSLRLSCAASGSIFQGYSMGWYRQAPGKERELVAAITASGGSTYYADSVKGRFTISRDNAKNTVSLKMNSLKPEDTAVYYCATDSYWRHDLYRYEYWGQGSQVTVSS | high polyreactivity
24 | QVQLVESGGGLVQAGGSLRLSCAASGSIFQHYAMGWYRQAPGKERELVARINWSGGRTYYADSVKGRFTISRDNAKNTVYLQMNSLKPEDTAVYYCNARYYYWGKAAFNYWGQGTQVTVSS | high polyreactivity
25 | QVQLVESGGGLVQAGGSLRLSCAASGSIFQHYAMGWYRQAPGKERELVARISYSGGNTYYADSVKGRFTISRDNAKNTVYLQMNSLKPEDTAVYYCAATRSHYPYRSGGDYWGQGTQVTVSS | low polyreactivity
26 | QVQLVESGGGLVQAGGSLRLSCAASGSIFQPYAMGWYRQAPGKERELVAAITNGGSTYYADSVKGRFTISRDNAKNTVYLQMNSLKPEDTAVYYCATDVLLYFEPVNLDYWGQGTQVTVSS | low polyreactivity
27 | QVQLVESGGGLVQAGGSLRLSCAASGSIFQVYAMGWYRQAPGKERELVATITSGGSTYYADSVKGRFTISRDNAKNTVYLQMNSLKPEDTAVYYCAAGVVYWWTGYPTISTYDYWGQGTQVTVSS | low polyreactivity
28 | QVQLVESGGGLVQAGGSLRLSCAASGSIFQYNAMGWYRQAPGKERELVADITSAGRTYYADSVKGRFTISRDNAKNTVYLQMNSLKPEDTAVYYCNKDYHYHFSWYGYWGQGTQVTVSS | low polyreactivity
29 | QVQLVESGGGLVQAGGSLRLSCAASGSIFQYNTMGWYRQAPGKESELVASISWRSGSTYYADSVKGRFTISRDNAKNTVYLQMNSLKPEDTAVYYCAAQVDPWWYDAGYDYWGQGTQVTVSS | low polyreactivity
30 | QVQLVESGGGLVQAGGSLRLSCAASGSIFQYYAMGWYRQPPGKEREFVAAITSDGSSTYYADSVKGRFTISRDNAKNTVYLQMNSLKPEDTAVYDCAAGWVGDRRPSMYYWGQGTQVTVSS | high polyreactivity
31 | QVQLVESGGGLVQAGGSLRLSCAASGSIFQYYVMGWYRQAPGKERELVAAIRRSGTTYYADSVKGRFTISRDNAKNTVYLQMNSLNPEDTAVYYCNKVRGQEPSNYDYWGQGTQVTVSS | low polyreactivity
32 | QVQLVESGGGLVQAGGSLRLSCAASGSIFQYYVMGWYRQAPGKERELVAAIRRSGTTYYADSVKGRFTISRDNAMITVYLQMNSLKPEVTAFYYCKKVRCQEPSNYDYWGQGTQVTVSS | low polyreactivity

Source: the nanobody polyreactivity screen of Harvey et al. (2022)
